Measurements from article PMC4168798.

Key:
Assay in all cases: fluorescence polarisation
[1] = target: Bcl-xL (c-myc-tagged, without the C-terminal trans-membrane region) (human)
[2] = target: Bfl-1 (c-myc-tagged, without the C-terminal trans-membrane region) (human)
[3] = target: Mcl-1 (c-myc-tagged, without the N-terminal domain and the C-terminal trans-membrane region) (human)
[4] = target: Bcl-w (c-myc-tagged, without the C-terminal trans-membrane region) (human)
[5] = target: Bcl-2 (c-myc-tagged, without the C-terminal trans-membrane region) (human)

Chain of Bcl-w (c-myc-tagged, without the C-terminal trans-membrane region) (human) (Q92843 1-164): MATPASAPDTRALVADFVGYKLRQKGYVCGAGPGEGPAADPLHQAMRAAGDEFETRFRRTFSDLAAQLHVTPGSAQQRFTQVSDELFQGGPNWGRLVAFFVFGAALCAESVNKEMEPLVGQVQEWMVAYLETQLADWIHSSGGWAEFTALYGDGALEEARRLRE

Substance	Kd [1]	Kd [2]	Kd [3]	Kd [4]	Kd [5]
Bim 23-mer, N-terminal fluorescein (peptide)	2.6 nM	< 1 nM	< 1 nM	–	–
Bim_A2eT, N-terminal fluorescein (peptide; other documents disagree on this pair)	–	–	–	39 nM	–
Bim_A2eT_E2gG, N-terminal fluorescein (peptide; other documents disagree on this pair)	–	–	–	94 nM	–
Bim_A2eT_I3dL, N-terminal fluorescein (peptide; other documents disagree on this pair)	–	–	–	12 nM	–
Bim_A2eT_I3dL, N-terminal fluorescein (peptide)	7.6 nM	120 nM	< 1 nM	–	37 nM

More lines, now with the values ahead:

Kd [1]	Kd [2]	Kd [3]	Kd [4]	Kd [5]	Substance
37 nM	–	1.6 nM	–	150 nM	Bim_A2eT_E2gG, N-terminal fluorescein (peptide)
110 nM	7.9 nM	< 1 nM	–	150 nM	Bim_A2eT_F4aI, N-terminal fluorescein (peptide)
–	–	–	260 nM	–	Bim_A2eT_I2dM, N-terminal fluorescein (peptide; other documents disagree on this pair)
83 nM	150 nM	< 1 nM	–	210 nM	Bim_A2eT_I2dM, N-terminal fluorescein (peptide)
17 nM	31 nM	< 1 nM	–	43 nM	Bim_A2eT, N-terminal fluorescein (peptide)
–	–	–	16 nM	–	Bim_A2eT_F4aI, N-terminal fluorescein (peptide; other documents disagree on this pair)
